This note sets out measurements from publication PMC9860181 (Plant Communications, 2022).

Where two headings read alike, the source gives them in different places.

For series [1], the target named is T1, UVR8^W285A-Strep II (A. thaliana, UniProt Q9FN03 1-440, W285A).
T1 sequence: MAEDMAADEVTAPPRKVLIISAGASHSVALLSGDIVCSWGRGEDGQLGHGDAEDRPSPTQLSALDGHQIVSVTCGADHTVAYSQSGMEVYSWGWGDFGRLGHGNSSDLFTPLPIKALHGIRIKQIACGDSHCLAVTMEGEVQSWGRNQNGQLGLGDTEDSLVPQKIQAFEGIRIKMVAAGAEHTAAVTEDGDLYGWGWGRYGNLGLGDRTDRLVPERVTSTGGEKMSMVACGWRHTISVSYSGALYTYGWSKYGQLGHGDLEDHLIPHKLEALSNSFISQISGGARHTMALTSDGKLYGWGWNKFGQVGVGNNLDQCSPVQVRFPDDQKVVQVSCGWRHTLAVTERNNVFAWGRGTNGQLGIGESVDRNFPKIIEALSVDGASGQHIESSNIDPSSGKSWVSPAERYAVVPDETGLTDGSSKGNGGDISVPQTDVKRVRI
Kind of series: pull-down.

Series [2] concerns the molecule itself. In words: SDS-PAGE of dimer and monomer.
Series [3] deals with T1, UVR8^W285A-Strep II. Kind of series: pull-down. The source holds these as a separate data set.
Series [4] concerns the target T2, UVR8^W285A (residues 12–421) (A. thaliana, UniProt Q9FN03 12-421, W285A).
T2 sequence: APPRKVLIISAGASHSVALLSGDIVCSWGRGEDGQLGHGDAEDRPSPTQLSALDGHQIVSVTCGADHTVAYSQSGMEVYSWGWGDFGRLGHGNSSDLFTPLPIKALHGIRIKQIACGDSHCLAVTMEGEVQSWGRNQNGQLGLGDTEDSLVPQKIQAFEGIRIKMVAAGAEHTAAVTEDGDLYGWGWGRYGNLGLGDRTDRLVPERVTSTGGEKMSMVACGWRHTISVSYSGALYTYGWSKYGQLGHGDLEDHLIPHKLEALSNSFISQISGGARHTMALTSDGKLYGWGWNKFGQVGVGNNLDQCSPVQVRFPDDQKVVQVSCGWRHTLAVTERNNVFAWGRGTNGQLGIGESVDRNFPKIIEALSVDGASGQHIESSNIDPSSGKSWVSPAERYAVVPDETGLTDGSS
Kind of series: crystal structure.

B1: REPRESSOR OF UV-B PHOTOMORPHOGENESIS 2 (RUP2), C-terminal 3×Flag (natural protein)
chain: MNTLHPHKQQQEQAQQQEEARYEWDLSLSTVVSSSSSSASDVIGAIEFDPTDNIVATAGISRKIRFYGLPSLLRNNAVSGTGVSFVDQATACEYYICTPAKLSSLRWRPGSGGRVIGSGDYDGVVMEYDLEKRTPVFERDEHGGRRVWSVDYTRHGGASTVGASGSDDGTMQVWDPRCPPEESVGVVRPAGICRSAVCCVEFDPSGGPAVAVGCADRKGYVYDIRKLVDPALTLQGHTKTVSYVRFLDGGTVVTAGTDGCLKLWSVEDGRVIRTYEGHVNNRNFVGLSVWRNGALFGCGSENNRVFVYDRRWGKPVWVDGFEPVGMNSGSDKRFVSSVCWRQSGVDQCTLVAGGSDGVLQVYVGKRKP
As to B1, the binding result in series [1] was “binds”.

B2: UVR8^N396 (residues 1–396) (domain or fragment)
chain: MAEDMAADEVTAPPRKVLIISAGASHSVALLSGDIVCSWGRGEDGQLGHGDAEDRPSPTQLSALDGHQIVSVTCGADHTVAYSQSGMEVYSWGWGDFGRLGHGNSSDLFTPLPIKALHGIRIKQIACGDSHCLAVTMEGEVQSWGRNQNGQLGLGDTEDSLVPQKIQAFEGIRIKMVAAGAEHTAAVTEDGDLYGWGWGRYGNLGLGDRTDRLVPERVTSTGGEKMSMVACGWRHTISVSYSGALYTYGWSKYGQLGHGDLEDHLIPHKLEALSNSFISQISGGWRHTMALTSDGKLYGWGWNKFGQVGVGNNLDQCSPVQVRFPDDQKVVQVSCGWRHTLAVTERNNVFAWGRGTNGQLGIGESVDRNFPKIIEALSVDGASGQHIESSNIDPSS
Regarding B2, the binding result in series [2] is listed as “binds”.

B3: REPRESSOR OF UV-B PHOTOMORPHOGENESIS 1 (RUP1), C-terminal 3×Flag (natural protein)
chain: MEALFCSEIPNNNIRSSINDLSSSSSYTWPMIMTSSSSSSSSPTIMNIENIPRCDWDLSLSAVVSSASTGSDAIGAIEFDPTGEIIATGGIARKIRSYRLSSLLESRDDHVTASESYICTPAKLSSLKWRPDFSGRVIGSGDYDGVVTEYDVEKQVPVSERDEHGGRRIWSVDYTLYNGSLIGASGSDDGTVQMWDPRNGGTLEETVRPGGGAAICSVEFDPFGGSSIAVGCADRNAYVYDIRRLVDPLIVLDGHTKTVTYARFMDSHTIVTGSTDGSLKQWDIDNGRRVVRTYRGHVNSRNFVGLSVWRHGGLVVSGSENNQVFVYDKRWEEPVWVCGLGHTNRFGSDRRFVSSVCLRQVDEDWCTLVAGGSDGALEIFSGKQS
For B3, the binding result in series [3] is recorded as “binds”.

B4: RUP2 (residues 21–366) (domain or fragment)
chain: RYEWDLSLSTVVSSSSSSASDVIGAIEFDPTDNIVATAGISRKIRFYGLPSLLRNNAVSGTGVSFVDQATACEYYICTPAKLSSLRWRPGSGGRVIGSGDYDGVVMEYDLEKRTPVFERDEHGGRRVWSVDYTRHGGASTVGASGSDDGTMQVWDPRCPPEESVGVVRPAGICRSAVCCVEFDPSGGPAVAVGCADRKGYVYDIRKLVDPALTLQGHTKTVSYVRFLDGGTVVTAGTDGCLKLWSVEDGRVIRTYEGHVNNRNFVGLSVWRNGALFGCGSENNRVFVYDRRWGKPVWVDGFEPVGMNSGSDKRFVSSVCWRQSGVDQCTLVAGGSDGVLQVYVGKR
On to B4, for which, in series [4], the binding result was “binds”.
